Source: patent US20180312587A1 (ADURO BIOTECH HOLDINGS EUROPE B V, published 2018)
Where two headings read alike, the source gives them in different places.

Key:
[1] = biological target: T1, human SIRPβ1 (human, UniProt O00241 30-398); assay: CELISA, CHO-K1 transfectants
T1 construct: also called hSIRPβ1
Method: Reactivity was confirmed using CHO-K1 cells (ATCC CCL-61) that had been transiently transfected, using Lipofectamine 2000, with cDNA encoding the full length open reading frame of hSIRPαV1, hSIRPαV2, hSIRPβ1, hSIRPβL, and hSIRPγ subcloned into the pCI-neo vector (Promega, Madison, Wis.). CHO-K1.hSIRPαV1, CHO-K1.hSIRPαV2, CHO-K1.hSIRPβ1, CHO-K1.hSIRPβL, and CHO-K1.hSIRPγ cells were seeded in culture medium (DMEM-F12 (Gibco) supplemented with 5% New Born Calf Serum (BioWest) and Pen/Strep (Gibco)) in 96-well flat-bottom tissue culture plates and incubated at 37° C., 5% CO₂ and 95% humidity for 24 hours. Subsequently, culture medium was removed and cells were incubated for 1 hour at 37° C., 5% CO₂ and 95% humidity with purified hSIRPα antibodies (used at 10 μg/mL and dilutions thereof). Next, cells were washed with PBS-T and incubated for 1 hour at 37° C., 5% CO₂ and 95% humidity with goat-anti-mouse IgG-HRP (Southern Biotech). Subsequently, cells were washed three times with PBS-T and immunoreactivity against hSIRPαV1, hSIRPαV2, hSIRPβ1, hSIRPβL, and hSIRPγ was visualized with TMB Stabilized Chromogen (Invitrogen). Reactions were stopped with 0.5 M H₂SO₄ and absorbances were read at 450 and 610 nm.
The KWAR23 antibody cross-reacts with all members of the SIRP receptor family tested: it binds to hSIRPαV1, hSIRPαV2, hSIRPβ1, hSIRPβL, and hSIRPγ.

[2] = biological target: T1, human SIRPβ1; assay: CELISA, CHO-K1 transfectants; remark: listed apart in the source
Method: (§1) Reactivity was confirmed using CHO-K1 cells (ATCC CCL-61) expressing a cDNA encoding the full length open reading frame of hSIRPαV1, hSIRPαV1(P74A), hSIRPαV2, and hSIRPβ1 subcloned into the pCI-neo vector (Promega, Madison, Wis.). CHO-K1.hSIRPαV1, CHO-K1.hSIRPαV1(P74A), CHO-K1.hSIRPαV2, and CHO-K1.hSIRPβ1 cells were seeded in culture medium (DMEM-F12 (Gibco) supplemented with 5% New Born Calf Serum (BioWest) and Pen/Strep (Gibco)) in 96-well flat-bottom tissue culture plates and incubated at 37° C., 5% CO₂ and 95% humidity for 24 hours. Subsequently, culture medium was removed and cells were incubated for 1 hour at 37° C., 5% CO₂ and 95% humidity with purified hSIRPα antibodies (used at 10 μg/mL and dilutions thereof). Next, cells were washed with PBS-T and incubated for 1 hour at 37° C., 5% CO₂ and 95% humidity with goat-anti-mouse IgG-HRP (Southern Biotech). Subsequently, cells were washed three times with PBS-T and immunoreactivity against hSIRPαV1, hSIRPαV1(P74A), hSIRPαV2, and hSIRPβ1 was visualized with TMB Stabilized Chromogen (Invitrogen). Reactions were stopped with 0.5 M H₂SO₄ and absorbances were read at 450 and 610 nm.

[3] = biological target: T2, hSIRPαV1(P74A) (human, UniProt P78324 31-504); assay: CELISA, CHO-K1 transfectants
T2 construct: also called P74A variant of hSIRPαV1
Method: as §1

[4] = biological target: T3, human SIRPα variant 1 (human, UniProt P78324 31-504); assay: CELISA, CHO-K1 transfectants; average of two experiments
T3 construct: full length ORF on transfected CHO-K1 or HEK293 cells; entry includes the signal peptide; also called hSIRPαV1; SIRPαV1
Method: (§2) The binding specificity of antibodies hSIRPα.40A and hSIRPα.50A to hSIRPα were compared in a CELISA format. In short, CHO-K1 cells were transiently transfected with hSIRPαV1, hSIRPαV2, hSIRPβ1, hSIRPβL, and hSIRPγ cDNAs. Subsequently, hSIRPα binding was assessed by CELISA using CHO-K1.hSIRPαV1, CHO-K1.hSIRPαV2, CHO-K1.hSIRPβ1, CHO-K1.hSIRPβL, and CHO-K1.hSIRPγ cells. Detection of bound antibody was done with goat-anti-mouse IgG-HRP (Southern Biotech).

[5] = biological target: T4, human SIRPα variant 2 (human, UniProt P78324 31-504); assay: as above
T4 construct: full length ORF on transfected CHO-K1 cells; also called hSIRPαV2; SIRPαV2
Method: as §2

[6] = biological target: T5, human SIRPγ (human, UniProt Q9P1W8 29-387); assay: as above
T5 construct: on transfected CHO-K1 cells; also called hSIRPγ
Method: as §2

T4 sequence (P78324 other isoform, or with tags, fused parts or gaps mutant limits assumed): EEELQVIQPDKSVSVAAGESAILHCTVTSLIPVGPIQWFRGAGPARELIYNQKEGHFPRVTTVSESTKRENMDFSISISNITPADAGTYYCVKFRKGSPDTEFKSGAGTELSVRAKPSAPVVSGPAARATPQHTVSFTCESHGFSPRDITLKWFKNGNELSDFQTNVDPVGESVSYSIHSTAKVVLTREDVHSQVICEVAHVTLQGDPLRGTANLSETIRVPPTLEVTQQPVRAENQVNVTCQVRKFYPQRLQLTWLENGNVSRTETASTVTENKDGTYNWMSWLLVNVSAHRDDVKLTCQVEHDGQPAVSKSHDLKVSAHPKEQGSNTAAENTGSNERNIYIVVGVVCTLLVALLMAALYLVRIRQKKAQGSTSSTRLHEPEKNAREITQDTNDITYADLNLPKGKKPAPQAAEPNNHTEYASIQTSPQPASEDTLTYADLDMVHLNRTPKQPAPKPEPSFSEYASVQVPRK
T3 sequence (P78324 31-504 limits assumed, change not shown): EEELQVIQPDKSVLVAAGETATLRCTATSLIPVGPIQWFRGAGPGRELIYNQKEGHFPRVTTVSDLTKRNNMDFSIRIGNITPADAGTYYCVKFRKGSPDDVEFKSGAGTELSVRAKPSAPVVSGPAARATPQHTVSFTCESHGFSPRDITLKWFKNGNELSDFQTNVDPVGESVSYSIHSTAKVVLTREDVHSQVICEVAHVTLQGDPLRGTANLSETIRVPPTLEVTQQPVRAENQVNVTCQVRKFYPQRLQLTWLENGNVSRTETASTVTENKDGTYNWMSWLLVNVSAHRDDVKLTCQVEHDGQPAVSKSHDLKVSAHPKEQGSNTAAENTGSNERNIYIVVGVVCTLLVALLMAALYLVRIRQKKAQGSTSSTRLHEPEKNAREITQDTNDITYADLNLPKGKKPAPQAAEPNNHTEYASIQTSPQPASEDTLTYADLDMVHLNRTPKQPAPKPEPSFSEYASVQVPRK
T1 sequence (O00241 30-398 limits assumed): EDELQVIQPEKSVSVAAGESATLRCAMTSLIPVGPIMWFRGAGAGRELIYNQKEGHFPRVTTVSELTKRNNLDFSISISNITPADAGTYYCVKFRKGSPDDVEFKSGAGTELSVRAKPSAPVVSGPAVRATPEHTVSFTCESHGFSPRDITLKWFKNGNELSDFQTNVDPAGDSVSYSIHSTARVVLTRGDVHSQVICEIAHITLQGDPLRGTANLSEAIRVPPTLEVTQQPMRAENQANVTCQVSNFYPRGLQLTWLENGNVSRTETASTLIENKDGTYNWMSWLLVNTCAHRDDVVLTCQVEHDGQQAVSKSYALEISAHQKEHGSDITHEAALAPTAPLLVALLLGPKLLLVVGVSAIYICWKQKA
T5 sequence (Q9P1W8 29-387 limits assumed): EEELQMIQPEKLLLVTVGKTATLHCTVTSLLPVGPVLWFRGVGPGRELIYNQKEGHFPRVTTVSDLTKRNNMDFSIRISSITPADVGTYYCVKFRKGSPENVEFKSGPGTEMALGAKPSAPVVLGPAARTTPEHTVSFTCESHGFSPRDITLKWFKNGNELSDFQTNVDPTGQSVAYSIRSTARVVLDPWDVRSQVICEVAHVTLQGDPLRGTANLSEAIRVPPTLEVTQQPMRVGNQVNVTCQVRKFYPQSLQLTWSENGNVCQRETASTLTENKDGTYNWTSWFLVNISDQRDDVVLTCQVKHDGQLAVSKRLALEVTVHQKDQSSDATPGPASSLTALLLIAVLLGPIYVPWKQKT

EC50 [1] [nM]	EC50 [2] [nM]	EC50 [3] [nM]	EC50 [4] [nM]	EC50 [5] [nM]	EC50 [6] [nM]	Binder
0.14	0.033	0.049	–	–	–	KWAR23 (antibody, V domains shown) VH: EVQLQQSGAELVKPGASVKLSCTASGFNIKDYYIHWVQQRTEQGLEWIGRIDPEDGETKYAPKFQDKATITADTSSNTAYLHLSSLTSEDTAVYYCARWGAYWGQGTLVTVSS VL: QIVLTQSPAIMSASPGEKVTLTCSASSSVSSSYLYWYQQKPGSSPKLWIYSTSNLASGVPARFSGSGSGTSYSLTISSMEAEDAASYFCHQWSSYPRTFGAGTKLELK
–	–	–	1.43	1.16	1.99	hSIRPα.50A (antibody, V domains shown, light chain constant domain not tied; also called mouse hSIRPα.50A; hSIRPα.50A.mIgG1) VH: QVQLQQSGPELVKPGASVRISCKASGFTFTNYYIHWVKQRPGQGLEWIGWIYPGNVNTKYNEKFKAKATLTADKSSTTAYMQLSSLASEDSAVYFCARPTIIATDFDVWGAGTTVTVSS VL: DIVMTQSHKFMSTSVGDRVNITCKASQGVGTAVGWYQQKPGQSPRLLIYWASTRHTGVPDRFTGSGSGTDFSLAISNVQSEDLADYFCQQYSTYPFTFGGGTNLEIK
–	–	–	0.109	0.088	0.099	hSIRPα.40A (antibody, mouse IgG1, kappa, V domains shown, mouse antibody, full chains without signal peptide; also called mouse hSIRPα.40A) VH: EVQFQQSGTVLARPGTSVKMSCKASGSTFTSYWMHWVKQGPGQGLQWIGAIYPVNNDTTYNQKFKGKAELTVVTSTSTAYMEVSSLTNEDSAVYYCTRSFYYSLDAAWFVYWGQGTLVTVSA VL: DIQMTQSPSSLSASLGERVSLTCRASQDIGSRLNWLQQEPDGTIKRLIYATSSLDSGVPKRFSGSRSGSDYSLTISGLESEDFVDYYCLQYASSPFTFGGGTKLEINR
